Biological target: complement Factor D present in C1q-depleted human serum (human, UniProt P00746 26-253)
Experiment: cell-based or functional assay

complement Factor D present in C1q-depleted human serum, sequence (P00746 26-253 limits assumed): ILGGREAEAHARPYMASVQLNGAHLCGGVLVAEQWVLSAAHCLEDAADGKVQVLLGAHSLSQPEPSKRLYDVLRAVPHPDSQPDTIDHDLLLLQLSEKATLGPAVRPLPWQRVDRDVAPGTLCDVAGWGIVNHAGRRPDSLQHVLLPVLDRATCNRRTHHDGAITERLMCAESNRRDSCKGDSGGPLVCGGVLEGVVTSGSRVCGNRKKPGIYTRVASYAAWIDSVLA

- IC50 inhibiting alternative complement in human serum (fD-dependent lysis of rabbit red blood cells): 3.3 nM
B1: anti-fD Fab with an amino acid sequence of heavy chain variable region according to SEQ ID NO:7 and light chain variable region according to SEQ ID NO:8 (Fab)
heavy: EVQLVQSGPELKKPGASVKVSCKASGYTFTNYGMNWVRQAPGQGLEWMGWINTYTGETTYADDFKGRFVFSLDTSVSTAYLQISSLKAEDTAVYYCERGGVNNWGQGTLVTVSSASTKGPSVFPLAPSSKSTSGGTAALGCLVKDYFPEPVTVSWNSGALTSGVHTFPAVLQSSGLYSLSSVVTVPSSSLGTQTYICNVNHKPSNTKVDKKVEPKSCDKTHT
light: DIQVTQSPSSLSASVGDRVTITCITSTDIDDDMNWYQQKPGKVPKLLISGGNTLRPGVPSRFSGSGSGTDFTLTISSLQPEDVATYYCLQSDSLPYTFGQGTKVEIKRTVAAPSVFIFPPSDEQLKSGTASVVCLLNNFYPREAKVQWKVDNALQSGNSQESVTEQDSKDSTYSLSSTLTLSKADYEKHKVYACEVTHQGLSSPVTKSFNRGEC

Source: patent US20190032056A1 (VITRISA THERAPEUTICS, published 2019)
